Positions count from the first letter of the chain named. Names and notes keep the numbering of the source. Values joined by “and” are separate entries in the source; they are usually repeats but may differ in a detail not shown here. Identical values can stand only once.
T1: human IL-12 (human, UniProt P29459 23-219; P29460 23-328)
T1 sequence (looked up) 1: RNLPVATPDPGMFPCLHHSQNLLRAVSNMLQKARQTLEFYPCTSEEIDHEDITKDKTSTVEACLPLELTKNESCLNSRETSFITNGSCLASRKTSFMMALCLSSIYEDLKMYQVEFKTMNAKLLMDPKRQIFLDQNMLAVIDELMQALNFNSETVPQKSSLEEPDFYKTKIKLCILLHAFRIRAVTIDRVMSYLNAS
T1 sequence (looked up) 2: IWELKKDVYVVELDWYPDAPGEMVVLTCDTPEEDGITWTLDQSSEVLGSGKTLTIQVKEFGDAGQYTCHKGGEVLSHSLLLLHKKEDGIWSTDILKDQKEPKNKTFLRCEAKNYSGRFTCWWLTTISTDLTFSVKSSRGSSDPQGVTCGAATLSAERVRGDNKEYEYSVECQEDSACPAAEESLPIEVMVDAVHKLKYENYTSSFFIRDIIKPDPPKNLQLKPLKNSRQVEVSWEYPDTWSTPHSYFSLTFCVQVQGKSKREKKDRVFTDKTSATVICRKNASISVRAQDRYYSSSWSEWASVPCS

T2: recombinant human IL-12 (rhIL-12) (human, UniProt P29459 23-219; P29460 23-328)
T2 sequence (looked up) 1: T1 sequence (looked up) 1
T2 sequence (looked up) 2: T1 sequence (looked up) 2

B1: 26-1 (scFv, V domains shown)
VH: QVQLVQSGGGVVQPGRSLRLSCAASGFTFSSYGMHWVRQAPGKGLEWVAFIRYDGSNKYYADSVKGRFTISRDNSKNTLYLQMKSLRAEDTAVYYCTTHGSHDNWGQGTMVTVSS
VL: SYVLTQPPSVSGTPGQRVTISCSGGRSNIGSNTVKWYQQLPGTAPKLLIYGNDQRPSGVPDRFSGSKSGTSASLAITGVQAEDEADYYCQSYDSSLWGSRVFGTGTKVTVL
notes: scFv; also called 26-1 (2, 3)
B2: 136-15 germline (scFv, V domains shown)
VH: B1 VH with Q6E, K84N, T97K
VL: QSVLTQPPSVSGAPGQRVTISCSGSRSNIGSNTVKWYQQLPGTAPKLLIYGNDQRPSGVPDRFSGSKSGTSASLAITGLQAEDEADYYCQTYDKGFTGSSVFGTGTKVTVL
B3: 149-6 (scFv, V domains shown)
VH: B1 VH
VL: SYVLTQPPSVSGTPGQRVTISCSGGRSNIVSNTVKWYQQLPGTAPKLLIYGNDQRPSGVPDRFSGSKSGTSASLAITGVQAEDEADYYCQSYDRGFTGSRVFGTGTKVTVLG
notes: scFv
B4: 103-14 & 9 (scFv, V domains shown)
VH: B1 VH with T97K
VL: B1 VL with S94R, S95G, L96F, W97T, R100M
notes: scFv
B5: 103-7 (scFv, V domains shown)
VH: B1 VH with N104D
VL: B1 VL with S94R, S95D, L96F, W97T, S99T
notes: scFv
B6: 78-34 (scFv, V domains shown)
VH: B1 VH with H99S, H102Y, N104Y
VL: B1 VL with S94R, S95G, L96F, W97T
notes: scFv
B7: 149-11 (scFv, V domains shown)
VH: B1 VH with G106S
VL: B1 VL with S94N, S95G, L96F, W97T, S99A
notes: scFv
B8: 149-4 (scFv, V domains shown)
VH: B1 VH with G106S
VL: B1 VL with S94R, S95G, L96F, W97T
notes: scFv
B9: 101-11 (scFv, V domains shown)
VH: B1 VH
VL: B1 VL with S94R, S95G, L96F, W97T
notes: scFv
B10: 103-4 (scFv, V domains shown)
VH: B1 VH
VL: B1 VL with G30V, S94R, S95G, L96F, W97T, S99A
notes: scFv
B11: 103-8 & 2 (scFv, V domains shown)
VH: B1 VH with T97K
VL: B2 VL with Q1S, S2Y, A13T, S25G, L79V
notes: scFv
B12: 149-7 (scFv, V domains shown)
VH: B1 VH
VL: B1 VL with S94R, S95D, L96F, W97T
notes: scFv
B13: 103-8 (scFv, V domains shown)
VH: B1 VH with T97K
VL: B2 VL with Q1S, S2Y, A13T, S25G, L79V
notes: scFv
B14: 70-1 (scFv, V domains shown)
VH: B1 VH
VL: B1 VL with W97R
notes: scFv
B15: Y17 (scFv, V domains shown)
VH: B1 VH with T97K
VL: B1 VL with S94R, S95G, L96S, W97A, G98P, S99M, R100I, V101N
notes: scFv
B16: 136-15 (scFv, V domains shown)
VH: B1 VH with T97K
VL: B3 VL with G25S, V30G, S91T, R94K, R100S
notes: scFv
B17: 79-1 (scFv, V domains shown)
VH: B1 VH with H99S, H102Y, N104Y
VL: B1 VL
notes: scFv
B18: Y61 (scFv, V domains shown)
VH: B1 VH with T97K
VL: B1 VL with S94R, S95G, L96T, W97H, G98P, S99A, R100L, V101L
notes: also called Y61 scFv; clone Y61; not shown: scFv linker and any tags
B19: Y45 (scFv, V domains shown)
VH: B1 VH with T97K
VL: B1 VL with S94R, S95G, L96T, W97D, G98P, S99A, R100I
notes: scFv clone
B20: Y174 (scFv, V domains shown)
VH: B1 VH with T97K
VL: B1 VL with S94R, S95G, L96T, W97T, G98P, S99A, R100P, V101E
notes: scFv clone
B21: G6 (scFv, V domains shown)
VH: B1 VH with T97K
VL: B1 VL with S94R, S95G, L96T, W97H, G98P, S99L, R100T, V101I
notes: scFv clone
B22: Y139 (scFv, V domains shown)
VH: B1 VH with T97K
VL: B1 VL with S94R, S95G, L96S, W97H, G98P, S99A, R100L, V101T
notes: scFv clone
B23: Y61-L50Y (scFv, V domains shown)
VH: B1 VH with T97K
VL: B2 VL with G51Y, T91S, K94R, F96T, T97H, G98P, S99A, S100L, V101L
B24: Y177 (scFv, V domains shown)
VH: B1 VH with T97K
VL: B1 VL with S94R, S95G, L96S, W97H, G98P, S99T, R100L, V101I
notes: scFv clone
B25: C6 (scFv, V domains shown)
VH: B1 VH with T97K
VL: B1 VL with S94R, S95G, L96Q, W97T, G98P, R100I, V101T
notes: scFv clone
B26: AO3 (scFv, V domains shown)
VH: B1 VH with T97K
VL: B1 VL with S94R, S95G, L96T, W97H, G98P, S99L, R100T, V101M
notes: scFv clone; only the CDR3s are tied to it
B27: Y38 (scFv, V domains shown)
VH: B1 VH with T97K
VL: B1 VL with S94R, S95G, L96T, W97H, G98P, R100I, V101T
notes: scFv clone

molecular target: T1, human IL-12; assay: cell-based or functional assay

| Binder | PHA assay IC50 |
| --- | --- |
| B1 | 60 nM |
| B2 | 6 nM |
| B3 | 2 nM |
| B4 | 1.2 nM |
| B5 | 1 nM |
| B6 | 600 nM |
| B7 | 4 nM |
| B8 | 3 nM |
| B9 | 30 nM and 20 nM |
| B10 | 0.9 nM |
| B11 | 1.5 nM |
| B12 | 3 nM |
| B13 | 1.5 nM |
| B14 | 200 nM |
| B15 | > 10 nM |
| B16 | 2 nM |
| B17 | 600 nM |

molecular target: T2, recombinant human IL-12 (rhIL-12); assay: cell-based or functional assay

| Binder | PHA assay IC50 [nM] | IFN gamma IC50 [nM] |
| --- | --- | --- |
| B18 | 0.14 |  |
| B19 | 4.3 |  |
| B20 | 2 |  |
| B21 | 1 |  |
| B22 | 0.45 |  |
| B23 |  | 0.02 |
| B24 | 1 |  |
| B25 | 10 |  |
| B26 | 0.4 |  |
| B27 | 2.6 |  |

molecular target: T1, human IL-12; assay: SPR (BIAcore), IL-12 chip
Excerpt: The system utilizes the optical properties of SPR to detect alterations in protein concentrations within a dextran biosensor matrix. Proteins are covalently bound to the dextran matrix at known concentrations. […] To determine the off rate (koff), on rate (kₒₙ), association rate (Ka) and dissociation rate (Kd) constants, BIAcore kinetic evaluation software (version 2.1) was used.

| Binder | koff [s⁻¹] |
| --- | --- |
| B1 | 0.0074 |
| B2 | 0.00046 |
| B3 | 0.00273 |
| B4 | 0.00067 |
| B5 | 0.00037 |
| B6 | 0.0164 |
| B7 | 0.0143 |
| B8 | 0.00137 |
| B9 | 0.0045 |
| B10 | 0.00016 |
| B11 | 0.00053 |
| B12 | 0.00113 |
| B13 | 0.00033 |
| B14 | 0.0134 |
| B15 | 8.9e-05 |
| B16 | 0.00074 |

molecular target: T2, recombinant human IL-12 (rhIL-12); assay: BIAcore SPR, IL-12 on chip

| Binder | koff [s⁻¹] |
| --- | --- |
| B18 | 0.000275 |
| B19 | 0.000617 |
| B20 | 0.000755 |
| B21 | 0.000508 |
| B22 | 0.000592 |
| B24 | 0.000661 |
| B25 | 0.00107 |
| B26 | 0.000304 |
| B27 | 0.000508 |

molecular target: T1, human IL-12; assay: RB assay: 125I-hIL-12 binding to PHA blasts
Protocol: (§1) PHA blast cells isolated as described above, were washed once and resuspended in binding buffer to a cell density of 2×10⁷ cells/ml. […] The cell pellet was examined for cell bound radioactivity using a gamma counter. […] Incubations were carried out in duplicate.

| Binder | IC50 [nM] |
| --- | --- |
| B3 | 0.6 |
| B4 | 0.04 |
| B5 | 0.14 |
| B6 | 200 |
| B7 | 0.2 |
| B8 | 0.08 |
| B9 | 2 |
| B10 | 0.086 |
| B12 | 0.9 |
| B13 | 0.06 |
| B15 | 0.45 |
| B16 | 0.1 |
| B17 | 200 |

molecular target: T2, recombinant human IL-12 (rhIL-12); assay: receptor binding assay, 125I-hIL-12 on PHA blasts
Protocol: as §1

| Binder | IC50 [nM] |
| --- | --- |
| B18 | 0.04 |
| B19 | 0.04 |
| B20 | 0.06 |
| B21 | 0.1 |
| B22 | 0.03 |
| B23 | 0.02 |
| B24 | 0.05 |
| B25 | 0.35 |
| B26 | 0.03 |
| B27 | 0.055 |

From patent US20150037348A1 (AbbVie / Abbott, published 2015)
